The values below come from paper PMC3859847 (Biochemistry, 2013).

The target of assay [1] is Glucokinase (Homo sapiens) (UniProt P35557). As to conditions: cited from earlier work.
Assay [2] addresses T1, rat liver glucokinase regulatory protein (rat, UniProt Q07071 1-627).
T1 sequence: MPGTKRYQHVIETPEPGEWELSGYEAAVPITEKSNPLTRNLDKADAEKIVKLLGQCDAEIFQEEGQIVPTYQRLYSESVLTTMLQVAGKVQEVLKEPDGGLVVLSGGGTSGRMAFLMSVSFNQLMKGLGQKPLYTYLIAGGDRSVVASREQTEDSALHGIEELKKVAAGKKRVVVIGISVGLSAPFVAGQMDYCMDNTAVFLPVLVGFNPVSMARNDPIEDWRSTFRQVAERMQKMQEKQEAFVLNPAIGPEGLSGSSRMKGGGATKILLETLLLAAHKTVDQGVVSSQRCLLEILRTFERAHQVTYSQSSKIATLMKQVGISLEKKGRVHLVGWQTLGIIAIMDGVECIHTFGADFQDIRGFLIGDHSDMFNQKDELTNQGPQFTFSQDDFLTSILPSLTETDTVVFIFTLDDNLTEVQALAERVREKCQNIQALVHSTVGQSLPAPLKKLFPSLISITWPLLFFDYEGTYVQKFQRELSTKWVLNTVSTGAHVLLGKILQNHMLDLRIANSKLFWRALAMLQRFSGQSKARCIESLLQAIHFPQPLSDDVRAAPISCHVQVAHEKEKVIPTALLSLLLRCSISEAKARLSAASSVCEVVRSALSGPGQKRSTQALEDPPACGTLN
Nature of the assay: crystal structure.

As usually defined, the Kd is a measure of binding affinity in units of concentration.

Turning to GKRP (from UniProt Q07071), the Kd in assay [1] was 1000 nM.

B1: human pancreatic glucokinase (enzyme)
chain: DDRARMEAAKKEKVEQILAEFQLQEEDLKKVMRRMQKEMDRGLRLETHEEASVKMLPTYVRSTPEGSEVGDFLSLDLGGTNFRVMLVKVGEGEEGQWSVKTKHQMYSIPEDAMTGTAEMLFDYISECISDFLDKHQMKHKKLPLGFTFSFPVRHEDIDKGILLNWTKGFKASGAEGNNVVGLLRDAIKRRGDFEMDVVAMVNDTVATMISCYYEDHQCEVGMIVGTGCNACYMEEMQNVELVEGDEGRMCVNTEWGAFGDSGELDEFLLEYDRLVDESSANPGQQLYEKLIGGKYMGELVRLVLLRLVDENLLFHGEASEQLRTRGAFETRFVSQVESDTGDRKQIYNILSTLGLRPSTTDCDIVRRACESVSTRAAHMCSAGLAGVINRMRESRSEDVMRITVGVDGSVYKLHPSFKERFHASVRRLTPSCEITFIESEEGSGRGAALVSAVACKKACMLGQ
B1: the binding result in assay [2] is “binds”.
